Source: publication PMC11764028 (Bioactive Materials, 2025)

Target: the molecule itself
Assay: SEC + native gel or EMSA

B1: dual-functional fusion protein KFS (KALA peptide - human ferritin light chain - SIINFEKL) (other)
chain: WEAKLAKALAKALAKHLAKALAKALKAIRQNYSTDVEAAVNSLVNLYLQASYTYLSLGFYFDRDDVALEGVSHFFRELAEEKREGYERLLKMQNQRGGRALFQDIKKPAEDEWGKTPDAMKAAMALEKKLNQALLDLHALGSARTDPHLCDFLETHFLDEEVKLIKKMGDHLTNLHRGGGGSGGGGSGGGGSSIINFEKL
Question: For B1, which “stoichiometry N” value is on record?
Answer: 40
